Results from patent US20080181886A1 (Genentech, published 2008).
Residue numbers refer to the chain shown, from its start.

T1: Murine APRIL (mouse, UniProt Q9D777 105-241, limits assumed)
T1 sequence (looked up): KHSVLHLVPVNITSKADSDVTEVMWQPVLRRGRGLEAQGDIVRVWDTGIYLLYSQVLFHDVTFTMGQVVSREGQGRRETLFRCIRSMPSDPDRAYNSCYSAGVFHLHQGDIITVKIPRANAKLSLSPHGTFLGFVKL

B1: TACI_d2 I92Q (receptor)
chain: SLSCRKEQGKFYDHLLRDCISCASQCGQHPKQCAYFCENKLR
notes: phage library variant, format as m9
B2: TACI_d2 F78L (receptor)
chain: B1 chain with F11L, Q25I
notes: as for B1
B3: TACI_d2 F78W (receptor)
chain: B1 chain with F11W, Q25I
notes: as for B1
B4: TACI_d2 I92K (receptor)
chain: B1 chain with Q25K
notes: as for B1
B5: TACI_d2 F78Q (receptor)
chain: B1 chain with F11Q, Q25I
notes: as for B1
B6: TACI_d2 F78D (receptor)
chain: B1 chain with F11D, Q25I
notes: as for B1
B7: TACI_d2 I92Y (receptor)
chain: B1 chain with Q25Y
notes: as for B1
B8: TACI_d2 F78R (receptor)
chain: B1 chain with F11R, Q25I
notes: as for B1
B9: TACI_d2 I92L (receptor)
chain: B1 chain with Q25L
notes: as for B1
B10: TACI_d2 F78K (receptor)
chain: B1 chain with F11K, Q25I
notes: as for B1
B11: TACI_d2 F78G (receptor)
chain: B1 chain with F11G, Q25I
notes: as for B1
B12: TACI_d2 I92G (receptor)
chain: B1 chain with Q25G
notes: as for B1
B13: TACI_d2 F78P (receptor)
chain: B1 chain with F11P, Q25I
notes: as for B1
B14: TACI_d2 I92E (receptor)
chain: B1 chain with Q25E
notes: as for B1
B15: TACI_d2 R84D (receptor)
chain: B1 chain with R17D, Q25I
notes: as for B1
B16: TACI_d2 F78I (receptor)
chain: B1 chain with F11I, Q25I
notes: as for B1
B17: TACI_d2 F78T (receptor)
chain: B1 chain with F11T, Q25I
notes: as for B1
B18: TACI_d2 R84G (receptor)
chain: B1 chain with R17G, Q25I
notes: as for B1
B19: TACI_d2 R84P (receptor)
chain: B1 chain with R17P, Q25I
notes: as for B1
B20: TACI_d2 Y79S (receptor)
chain: B1 chain with Y12S, Q25I
notes: as for B1

Biological target: human BAFF (human, UniProt Q9Y275 82-285, limits assumed)
Sequence (Q9Y275 82-285 limits assumed): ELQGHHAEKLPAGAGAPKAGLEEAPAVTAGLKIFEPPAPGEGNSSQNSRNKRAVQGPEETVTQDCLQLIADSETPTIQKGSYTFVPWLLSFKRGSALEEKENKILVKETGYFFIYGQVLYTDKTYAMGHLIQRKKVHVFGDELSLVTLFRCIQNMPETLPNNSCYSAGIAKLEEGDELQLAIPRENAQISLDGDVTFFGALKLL
Test: NNS library, phage display;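 note: ligand versus display occurrence-to-degeneracy ratio and higher means enriched by binding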
Description: (§1) This new phage library was subjected to sorting against either BAFF, APRIL or the display target antibody. After 3 rounds of sorting, approximately 48 clones were picked from each selection and the DNA sequences of the phage clones were determined. […] The normalized F′ value corrects for display bias and is calculated as the percent occurrence to percent degeneracy ratio for ligand selection divided by the percent occurrence to percent degeneracy ratio for display efficiency. Percent occurrence is calculated by dividing the number of times a particular amino acid appeared at a particular position by the total number of amino acids sequenced at that position followed by multiplying by 100. Percent degeneracy is calculated by dividing the degeneracy in code for a particular amino acid divided by the total degeneracy possible at that position followed by multiplying by 100 (e.g., if only A, G and I were selected, total degeneracy possible would be 5).

Question: Which “F' BAFF” value does the source give for B1 here?
Answer: 0

Question: For B2, which “F' BAFF” value is on record?
Answer: 0

Question: B3 was tested. Which “F' BAFF” value did it give?
Answer: 0

Question: For B4, which “F' BAFF” value is on record?
Answer: 0

Question: B5 was tested. Which “F' BAFF” value did it give?
Answer: 0

Question: For B6, which “F' BAFF” value is on record?
Answer: 0

Question: With B7 as the binder, how does the “F' BAFF” value read?
Answer: 0

Question: Which “F' BAFF” value does the source give for B8 here?
Answer: 0

Question: For B9, which “F' BAFF” value is on record?
Answer: 0

Question: With B10 as the binder, how does the “F' BAFF” value read?
Answer: 0

Question: With B11 as the binder, how does the “F' BAFF” value read?
Answer: 0

Question: How did the “F' BAFF” value turn out when B12 was run?
Answer: 0

Question: How did the “F' BAFF” value turn out when B13 was run?
Answer: 0

Question: Which “F' BAFF” value does the source give for B14 here?
Answer: 0

Question: B15 was tested. Which “F' BAFF” value did it give?
Answer: 0

Question: How did the “F' BAFF” value turn out when B16 was run?
Answer: 10

Question: With B17 as the binder, how does the “F' BAFF” value read?
Answer: 0

Biological target: T1, Murine APRIL
Test: NNS library, phage display;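 note: ligand versus display occurrence-to-degeneracy ratio and higher means enriched by binding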
Description: as §1

Question: With B1 as the binder, how does the “F' APRIL” value read?
Answer: 0

Question: For B2, which “F' APRIL” value is on record?
Answer: 0

Question: Which “F' APRIL” value does the source give for B3 here?
Answer: 0

Question: For B18, which “F' APRIL” value is on record?
Answer: 1

Question: With B4 as the binder, how does the “F' APRIL” value read?
Answer: 0

Question: For B5, which “F' APRIL” value is on record?
Answer: 0

Question: B6 was tested. Which “F' APRIL” value did it give?
Answer: 0

Question: How did the “F' APRIL” value turn out when B7 was run?
Answer: 0

Question: Which “F' APRIL” value does the source give for B8 here?
Answer: 0

Question: Which “F' APRIL” value does the source give for B9 here?
Answer: 2

Question: B10 was tested. Which “F' APRIL” value did it give?
Answer: 0

Question: For B11, which “F' APRIL” value is on record?
Answer: 0

Question: For B19, which “F' APRIL” value is on record?
Answer: 0

Question: How did the “F' APRIL” value turn out when B12 was run?
Answer: 0

Question: For B13, which “F' APRIL” value is on record?
Answer: 0

Question: B14 was tested. Which “F' APRIL” value did it give?
Answer: 0

Question: With B15 as the binder, how does the “F' APRIL” value read?
Answer: 9

Question: B16 was tested. Which “F' APRIL” value did it give?
Answer: 7

Question: How did the “F' APRIL” value turn out when B17 was run?
Answer: 1

Question: B20 was tested. Which “F' APRIL” value did it give?
Answer: 0

Biological target: T1, Murine APRIL
Test: shotgun scan, phage display
Source text: Phage from each of the libraries described above were subjected to rounds of binding selection against APRIL, BAFF, or anti-tag antibody (3C8:2F4 Genentech, Inc.) immobilized on 96-well Nunc Maxisorp immunoplates (Sidhu, 2001). BSA-coated wells were used to determine non-specific background binding. Phage eluted from each target were propagated in E. coli XL1-Blue in the presence of M13K07 helper phage; amplified phage were used for selection against the same target in the […] round. […] Enrichment was calculated from the ratio of the phage titer eluted from the target-coated wells to the phage titer eluted from the BSA-coated wells. Individual clones from each library and selection target were then grown in a 96-well format in 400 ul of 2YT medium supplemented with carbenicillin and KO7 helper phage. […] Sequences of acceptable quality were translated and aligned. For APRIL-binding, 71, 40, and 54 sequences were analyzed from libraries one, two and three, respectively. For BAFF-binding, 70, 50, and 53 sequences were analyzed for libraries one, two and three, respectively. For the display selection, a minimum of 47 sequences were analyzed for each library. […] F values describe the effect of mutation on target binding, while accounting for differences in display efficiencies, with values >1 representing deleterious mutations and those <1 representing favorable mutations.

Question: How did the “F (APRIL)” value turn out when B18 was run?
Answer: 1.8

Question: How did the “F (APRIL)” value turn out when B19 was run?
Answer: > 22

Question: Which “F (APRIL)” value does the source give for B20 here?
Answer: 31
